Experimental data: the supplement of paper PMC10567573

B1: ZNF649 (parent)
chain: YHTGKTPFVCPECGQPCSQKSGLI
B2: ZNF449 (parent)
chain: FQEYDTDCEVFRQRFRQFQYREAA

Variants of: B1
Test: protein stability index of a GFP-peptide fusion (GPS, HEK-293T) (PSI 1-6); higher = more stable
Details: c terminus: a fixed tail appended
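Note: lentivirally expressed fusions sorted by FACS into six bins by GFP to DsRed ratio, PSI derived from sequencing read proportions per bin multiplied by bin number.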

Protein stability index: each site, then its substitutions
G14: W 1.61 | C 2.12 | K 2.76 | S 1.72 | I 1.79 | P 2.54 | M 2.05 | Q 2.31 | R 3.6
C10: L 2.06 | Q 1.27 | K 1.76 | H 1 | R 1.75 | Y 2.29 | P 1.54 | W 2.79 | F 1.98
H2: A 1.99 | Q 2.28 | R 2.1 | W 2.06 | D 3.69 | I 2.36 | L 2.2 | V 1.96
G4: I 1.69 | C 2.49 | E 2.89 | F 2.36 | P 1.83 | Y 1.69
T3: A 2.57 | N 2.03 | Y 1.27 | R 2.23 | W 1.48 | P 1.61 | I 1.56
P16: F 2.1 | N 1.23 | T 1.34 | A 2.79 | E 2.79 | R 1.54 | G 2.99 | L 2.82 | I 1.87 | Q 2.37 | Y 1.04 | M 1.86
L23: P 2.15 | S 2.72 | Y 1.72 | I 2.03 | H 2.05 | Q 3.01 | A 1.59
C17: V 2.26 | G 2.94 | N 2.76 | H 1.73 | E 1.48 | D 2.63 | S 2.81
I24: T 2.01 | Y 1.59 | K 1.84 | N 1.99 | H 2.42 | A 1.08 | Q 2.33 | E 2.12 | G 2.94 | V 1.67 | P 1.54 | C 3.08
Q15: N 3.41 | E 2.65 | Y 1.75 | S 2.21 | G 1.45 | F 3.01 | V 1.5 | I 1.62 | T 2.35
V9: T 2.43 | H 2.47 | G 1.79 | I 2.38 | N 3 | R 2.24 | F 3.17 | W 2.49 | Y 3.65
S18: D 2.25 | T 2.5 | L 1.85 | N 1.22 | G 1.43 | E 3.48 | V 1.44 | H 1.26 | I 2.47
T6: V 1.65 | H 2.91 | I 2.22 | N 2.89 | C 1.45 | K 1.79 | L 2.21 | M 1.68
P7: A 1.73 | M 1.22 | T 2.52 | I 1.76 | L 2.12 | E 1.44 | H 3.19 | C 2.26 | R 1.03 | G 2.05 | Q 1.77
Y1: N 3.08 | L 2.51 | D 3.98 | Q 2.47 | T 3.06 | G 3.8 | H 3.46 | V 3.5 | R 2.69 | P 3.28 | W 2.48
S21: I 1.67 | E 1.85 | M 2.26 | G 2.41 | K 1.4 | N 1.93 | P 1.9 | C 2.32 | L 2.15 | T 1.96 | D 1.76
K20: N 1.07 | M 1.53 | I 3.23 | D 1.72 | R 2.69 | P 2.1 | V 1.43 | T 1.8 | L 1.37
E12: W 2.06 | Y 2.26 | A 1.96 | V 2.22 | S 2.11 | G 3.37 | Q 1.9 | R 2.32 | M 1.23 | F 2.31
F8: L 2.1 | K 1.82 | S 2.15 | N 2.16 | A 1.84
K5: T 1.13 | Y 3.06 | W 2.1 | P 2.66 | E 2.16 | N 1.81 | R 2 | D 1.77
P11: S 1.93 | G 1.43 | L 1.71 | T 2.49 | Q 1.57 | V 2.33 | N 1.62 | A 2.04 | M 2.32
G22: Q 2.2 | K 1.89 | A 1.81 | H 2.72 | V 2.92 | D 1.49 | I 2.15 | S 2.63 | M 1.87 | N 2.3 | R 2.22
Q19: P 2.04 | N 1.59 | M 2.49 | T 2.81 | E 1.71 | W 1.23 | R 2.27
C13: I 2.35 | D 2.6 | F 2.8 | V 2.13 | Y 3.41 | T 2.99 | A 3.53 | K 3.33 | N 1.83 | E 2.87 | R 2.37 | H 3

Variants of: B2
Test: as above
Details: c terminus: a fixed tail appended

Protein stability index of substitutions, site by site:
Q19: C 2.02 | S 2.11 | K 2.44 | N 2.29 | R 2.65 | M 2 | A 2.81 | Y 2.22 | I 2.53 | E 2.35 | W 2.35 | F 1.87 | T 2.3 | H 2.6 | G 2.67 | D 2.18 | V 2.48 | P 2.16
R21: Y 2.54 | N 2.62 | F 2.91 | L 1.91 | E 3.16 | I 2.71 | S 2.77 | G 3.14 | Q 2.96 | W 1.75 | M 2.69 | H 2.53 | T 2.86 | D 3.13 | P 2.44 | K 2.65 | V 2.51 | C 2.92 | A 2.44
E22: G 2.35 | I 1.99 | D 2.91 | H 2.36 | K 2.75 | M 1.83 | Y 1.95 | A 2.43 | L 2.22 | Q 2.17 | N 2.39 | T 2.62 | F 2.69 | C 2.39 | S 2.07 | R 1.65 | P 1.72 | V 2.12
Y20: T 3.46 | V 3.27 | L 2.83 | W 1.47 | A 3.12 | K 3.21 | E 3.52 | D 3.49 | G 3.31 | R 2.88 | Q 3.73 | F 2.57 | M 3.03 | H 3.27 | C 2.2 | I 3.37 | S 3.15 | N 3.48 | P 2.81
A23: L 2.51 | F 2.15 | K 3.31 | S 2.11 | M 2.43 | Q 2.89 | Y 1.95 | D 2.73 | V 2.15 | I 1.7 | H 2.54 | R 2.97 | C 2.65 | N 2.7 | W 1.61 | T 2.47 | P 2.39 | E 3.28
F18: P 2.43 | R 2.43 | Y 2.59 | S 2.1 | Q 3.56 | W 3.11 | T 3.11
A24: E 2.95 | G 2.51 | S 2.55 | M 2.13 | V 2.13 | K 2.76 | C 2.96 | N 2.65 | T 2.35 | H 1.96 | Q 3.13 | W 1.93 | D 2.8 | R 3.04 | L 2.64 | F 2.13 | P 2.77 | I 2.08 | Y 2.33
